According to patent publication US20200282012A1 (published 2020):

B1: CA28-2GS-BF (peptide)
peptide: ICVWQDWGAHRCTK
modifications: N-terminal acetyl; 1-methyl-tryptophan at position 4; disulfide Cys2-Cys12; AEEAc spacer between Thr13 and Lys; Lys side chain coupled to one end of a bifunctional linear 40 kD PEG of the GS type (glutaryl; amide and ester linkage); C-terminal amide
B2: (CA28-AEEAc)8-PEG40k (peptide)
peptide: ICVWQDWGAHRCTK
modifications: N-terminal acetyl; 1-methyl-tryptophan at position 4; disulfide Cys2-Cys12; AEEAc spacer between Thr13 and Lys; Lys side chain coupled to one arm of an eight-arm 40 kD PEG (SUNBRIGHT HGEO-400GS); C-terminal amide

What was measured:
[1] = target: T1, human complement component C3 (human, UniProt P01024 23-1663); assay: cell-based or functional assay
[2] = target: T1, human complement component C3; assay: cell-based or functional assay; remark: listed apart in the source

Binder | % Parent, Q1 (Type III cells with C3d deposition), modified Ham's assay, CA28-2GS-BF 50 ug/ml [1] [%] | % Parent, Q2 (Type I and II cells with C3d deposition), modified Ham's assay, CA28-2GS-BF 50 ug/ml [1] [%] | % Parent, Q3 (Type III cells without significant C3d deposition), modified Ham's assay, CA28-2GS-BF 50 ug/ml [1] [%] | % Parent, Q4 (Type I and II cells without significant C3d deposition), modified Ham's assay, CA28-2GS-BF 50 ug/ml [1] [%] | IC50 as a function of CA28 concentration, classical complement inhibition assay (C3b deposition ELISA, human plasma) [2] [nM]
B1 | 0.01 | 0.01 | 61.5 | 38.5 | –
B2 | – | – | – | – | 1930
